Earlier results as cited in paper PMC6802610.

Columns and labels:
GDI (Homo sapiens) = GDI (Homo sapiens) (UniProt P31150)
Rab1 (Homo sapiens) = Rab1 (Homo sapiens) (UniProt P62820)
Rab1 (Homo sapiens), sequence (P62820 2-205): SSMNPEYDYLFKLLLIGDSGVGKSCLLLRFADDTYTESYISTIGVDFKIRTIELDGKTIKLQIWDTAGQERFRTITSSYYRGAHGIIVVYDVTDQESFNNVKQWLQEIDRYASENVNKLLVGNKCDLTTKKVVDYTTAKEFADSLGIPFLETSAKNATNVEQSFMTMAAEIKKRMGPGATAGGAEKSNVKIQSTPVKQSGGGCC

SidM/DrrA, sequence (Q5ZSQ3 whole entry): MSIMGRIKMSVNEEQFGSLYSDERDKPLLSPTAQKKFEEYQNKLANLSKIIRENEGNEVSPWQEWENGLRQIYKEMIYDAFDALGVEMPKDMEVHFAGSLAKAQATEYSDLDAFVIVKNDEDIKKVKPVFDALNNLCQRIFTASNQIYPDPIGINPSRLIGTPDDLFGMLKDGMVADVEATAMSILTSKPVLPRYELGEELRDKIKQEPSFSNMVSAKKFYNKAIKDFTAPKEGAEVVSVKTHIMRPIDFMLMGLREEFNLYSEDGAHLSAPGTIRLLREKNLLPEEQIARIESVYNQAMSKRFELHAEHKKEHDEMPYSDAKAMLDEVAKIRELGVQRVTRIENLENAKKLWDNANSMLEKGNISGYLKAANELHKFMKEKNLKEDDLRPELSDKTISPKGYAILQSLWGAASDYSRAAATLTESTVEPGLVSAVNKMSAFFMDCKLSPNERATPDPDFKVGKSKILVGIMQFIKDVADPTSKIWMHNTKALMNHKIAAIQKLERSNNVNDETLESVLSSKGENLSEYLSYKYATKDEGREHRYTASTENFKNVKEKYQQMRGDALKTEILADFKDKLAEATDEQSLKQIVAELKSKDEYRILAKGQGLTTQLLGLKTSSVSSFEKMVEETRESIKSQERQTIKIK
GDI (Homo sapiens), sequence (P31150 whole entry): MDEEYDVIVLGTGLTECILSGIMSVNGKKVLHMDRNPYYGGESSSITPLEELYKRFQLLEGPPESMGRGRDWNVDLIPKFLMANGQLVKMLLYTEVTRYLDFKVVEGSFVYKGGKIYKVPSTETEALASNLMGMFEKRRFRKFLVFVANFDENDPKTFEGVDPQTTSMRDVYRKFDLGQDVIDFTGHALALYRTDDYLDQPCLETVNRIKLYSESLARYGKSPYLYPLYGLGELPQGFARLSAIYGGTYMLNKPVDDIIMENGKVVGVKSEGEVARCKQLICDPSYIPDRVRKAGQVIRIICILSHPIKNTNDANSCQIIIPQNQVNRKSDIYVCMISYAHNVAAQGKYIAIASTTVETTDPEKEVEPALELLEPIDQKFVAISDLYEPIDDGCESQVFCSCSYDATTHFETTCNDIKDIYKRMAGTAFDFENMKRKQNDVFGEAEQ
Rab1, sequence (P62820 2-205): as the sequence (P62820 2-205) above

| Substance | Kd (GDI (Homo sapiens)) | Kd (Rab1 (Homo sapiens)) |
| --- | --- | --- |
| Rab1 (from UniProt P62820) | 20 nM |  |
| SidM/DrrA (from UniProt Q5ZSQ3) |  | 84 nM |
